From patent publication US20250135048A1, “Fibroblast activation protein compound or salt with albumin dual-binding function” (National Atomic Research Institute, priority 2023, published 2025) come the findings set out here.

Data set [1] can be described thus: nanoSPECT/CT imaging biodistribution in blood of heart of HEK-293-FAP tumor-bearing mice. The following applies: BALB/c nude mice, nanoSPECT/CT semi-quantification.
Procedure: (§1) The HEK-293 human embryonic kidney cancer cells expressing FAP (HEK-293-FAP cells) are inoculated with 4×10^6 cells at the forward right flanks of BALB/c nude mice. […] These drugs are prepared to about 100 μL volume in normal saline. The nanoSPECT/CT imaging is performed at 1, 4, and 24 h after the intravenously administrated via tail vein.
(§2) The nanoSPECT/CT imaging is performed at 1, 4, and 24 h after administration to monitor the distribution of radiopharmaceuticals in the animal. The images are semi-quantification by using imaging analysis software. The SPECT count value of reference source is obtained by using imaging analysis software. […] The SPECT count value is obtained from region of image of each target organ, and obtained the activity/volume of each target organ by using the conversion formula.
For data set [2], the system named is HEK-293 human embryonic kidney cancer cells expressing FAP (HEK-293-FAP cells) tumor. The data set is described as follows: nanoSPECT/CT imaging biodistribution in tumor of HEK-293-FAP tumor-bearing mice. The following applies: BALB/c nude mice, nanoSPECT/CT semi-quantification.
Procedure: as §1, §2
[3] abbreviates: 1 h after intravenous administration via tail vein.
The mark [4] stands for this setting: 4 h after intravenous administration via tail vein.
Setting [5] is: 24 h after intravenous administration via tail vein.

For `CN(CCCN1CCN(C(=O)[C@H](COCCNC(=O)CCCc2ccc(I)cc2)NC(=O)[C@H](CCCCSC2CC(=O)N(CCC(=O)N[C@@H](CCCCN)C(=O)N[C@@H](CCCCN)C(=O)N[C@@H](CCCCN)C(=O)N[C@@H](CCCCN)C(=O)N[C@@H](CCCCN)C(=O)N[C@@H](CCCCN)C(=O)N[C@@H](CCCCN)C(=O)N[C@@H](CCCCN)C(=O)O)C2=O)NC(=O)CNC(=O)CN2CCN(CC(=O)O)CCN(CC(=O)O)CCN(CC(=O)O)CC2)CC1)c1ccc2nccc(C(=O)NCC(=O)N3CC(F)(F)C[C@H]3C#N)c2c1` (stereo partly drawn) [Lu-177-INER-FAPI-1.12, metal not drawn], the “Blood of heart biodistribution value” in data set [1] (setting [3]) was 16.19 % ID/mL; in data set [1] (setting [4]) it was 13.33 % ID/mL; in data set [1] (setting [5]), 5.50 % ID/mL. Moreover, the Tumor biodistribution value in data set [2] (setting [3]) came out at 4.71 % ID/mL; in data set [2] (setting [4]) it was 5.08 % ID/mL; in data set [2] (setting [5]), 4.21 % ID/mL.
As for `CN(CCCN1CCN(C(=O)[C@H](COCCNC(=O)CCCc2ccc(I)cc2)NC(=O)[C@H](CCCCSC2CC(=O)N(CCC(=O)N[C@@H](CCCCN)C(=O)N[C@@H](CCCCN)C(=O)N[C@@H](CCCCN)C(=O)N[C@@H](CCCCN)C(=O)N[C@@H](CCCCN)C(=O)N[C@@H](CCCCN)C(=O)N[C@@H](CCCCN)C(=O)N[C@@H](CCCCN)C(=O)N[C@@H](CCCCN)C(=O)N[C@@H](CCCCN)C(=O)N[C@@H](CCCCN)C(=O)N[C@@H](CCCCN)C(=O)O)C2=O)NC(=O)CNC(=O)CN2CCN(CC(=O)O)CCN(CC(=O)O)CCN(CC(=O)O)CC2)CC1)c1ccc2nccc(C(=O)NCC(=O)N3CC(F)(F)C[C@H]3C#N)c2c1` (stereo partly drawn) [Lu-177-INER-FAPI-1.13, metal not drawn], the entries for the “Blood of heart biodistribution value” in data set [1] (setting [3]), in data set [1] (setting [4]) and in data set [1] (setting [5]) were 15.70 % ID/mL, 12.33 % ID/mL and 5.44 % ID/mL, respectively. Also, the figures for the Tumor biodistribution value in data set [2] (setting [3]), in data set [2] (setting [4]) and in data set [2] (setting [5]) were 8.03 % ID/mL, 8.54 % ID/mL and 5.44 % ID/mL, respectively.
`CN(CCCN1CCN(C(=O)[C@H](COCCNC(=O)CCCc2ccc(I)cc2)NC(=O)[C@H](CCCCSC2CC(=O)N(CCC(=O)N[C@@H](CCCNC(=N)N)C(=O)N[C@@H](CCCNC(=N)N)C(=O)N[C@@H](CCCNC(=N)N)C(=O)N[C@@H](CCCNC(=N)N)C(=O)N[C@@H](CCCNC(=N)N)C(=O)N[C@@H](CCCNC(=N)N)C(=O)N[C@@H](CCCNC(=N)N)C(=O)N[C@@H](CCCNC(=N)N)C(=O)N[C@@H](CCCNC(=N)N)C(=O)N[C@@H](CCCNC(=N)N)C(=O)N[C@@H](CCCNC(=N)N)C(=O)N[C@@H](CCCNC(=N)N)C(=O)O)C2=O)NC(=O)CNC(=O)CN2CCN(CC(=O)O)CCN(CC(=O)O)CCN(CC(=O)O)CC2)CC1)c1ccc2nccc(C(=O)NCC(=O)N3CC(F)(F)C[C@H]3C#N)c2c1` (stereo partly drawn) [Lu-177-INER-FAPI-1.23, metal not drawn]: the “Blood of heart biodistribution value” in data set [1] (setting [3]) is listed as 10.54 % ID/mL; in data set [1] (setting [4]), 8.89 % ID/mL; in data set [1] (setting [5]) it was 3.49 % ID/mL. The Tumor biodistribution value in data set [2] (setting [3]) came to 6.58 % ID/mL; in data set [2] (setting [4]) it was 5.96 % ID/mL; in data set [2] (setting [5]) it was 3.23 % ID/mL.
